Source: patent US20230002480A1

What was measured:
Assay in all cases: cell-based or functional assay
[1] = biological target: HIV-1 Env of pseudovirus 263-8 (HIV-1)
[2] = biological target: HIV-1 Env of pseudovirus Q769.d22 (HIV-1)
[3] = biological target: HIV-1 Env of pseudovirus ZM197M.PB7 (HIV-1)
[4] = biological target: HIV-1 Env of pseudovirus 246F C1G (HIV-1)
[5] = biological target: HIV-1 Env of pseudovirus ZM247v1(Rev-) (HIV-1)
[6] = biological target: HIV-1 Env of pseudovirus HIV-16055-2.3 (HIV-1)
[7] = biological target: HIV-1 Env of pseudovirus SC05_8C11_2344 (HIV-1)
[8] = biological target: HIV-1 Env of pseudovirus PVO.4 (HIV-1)
[9] = biological target: HIV-1 Env of pseudovirus CNE19 (HIV-1)
[10] = biological target: HIV-1 Env of pseudovirus CNE21 (HIV-1)
[11] = biological target: HIV-1 Env of pseudovirus TRJO4551.58 (HIV-1)
[12] = biological target: HIV-1 Env of pseudovirus 9004SS_A3_4 (HIV-1)
[13] = biological target: HIV-1 Env of pseudovirus SC422661.8 (HIV-1)
[14] = biological target: HIV-1 Env of pseudovirus HIV-0013095-2.11 (HIV-1)
[15] = biological target: HIV-1 Env of pseudovirus ZM135M.PL10a (HIV-1)
[16] = biological target: HIV-1 Env of pseudovirus T257-31 (HIV-1)
[17] = biological target: HIV-1 Env of pseudovirus Ce1086_B2 (HIV-1)
[18] = biological target: HIV-1 Env of pseudovirus AC10.0.29 (HIV-1)
[19] = biological target: HIV-1 Env of pseudovirus CNE52 (HIV-1)
[20] = biological target: HIV-1 Env of pseudovirus THRO4156.18 (HIV-1)
[21] = biological target: HIV-1 Env of pseudovirus 3365.v2.c2 (HIV-1)
[22] = biological target: HIV-1 Env of pseudovirus 6952.v1.c20 (HIV-1)
[23] = biological target: HIV-1 Env of pseudovirus 211-9 (HIV-1)
[24] = biological target: HIV-1 Env of pseudovirus 89-F1_2_25 (HIV-1)
[25] = biological target: HIV-1 Env of pseudovirus 3301.v1.c24 (HIV-1)
[26] = biological target: HIV-1 Env of pseudovirus 231965.c01 (HIV-1)
[27] = biological target: HIV-1 Env of pseudovirus 6480.v4.c25 (HIV-1)
[28] = biological target: HIV-1 Env of pseudovirus 6545.v4.c1 (HIV-1)
[29] = biological target: HIV-1 Env of pseudovirus BJOX010000.06.2 (HIV-1)
[30] = biological target: HIV-1 Env of pseudovirus C3347.c11 (HIV-1)
[31] = biological target: HIV-1 Env of pseudovirus T255-34 (HIV-1)
[32] = biological target: HIV-1 Env of pseudovirus C1080.c03 (HIV-1)
[33] = biological target: HIV-1 Env of pseudovirus 3103.v3.c10 (HIV-1)
[34] = biological target: HIV-1 Env of pseudovirus 620345.c01 (HIV-1)
[35] = biological target: HIV-1 Env of pseudovirus X1632_S2_B10 (HIV-1)
[36] = biological target: HIV-1 Env of pseudovirus P0402_c2_11 (HIV-1)
[37] = biological target: HIV-1 Env of pseudovirus BJOX025000.01.1 (HIV-1)

Q: What does the source list for 10-1074 (antibody)?
A: IC50, titer in TZM.bl cells [1]: 0.666 µg/mL; IC80, titer in TZM.bl cells [1]: 6.53 µg/mL; IC50, titer in TZM.bl cells [2]: > 50 µg/mL; IC80, titer in TZM.bl cells [2]: > 50 µg/mL; IC50, titer in TZM.bl cells [3]: > 50 µg/mL; IC80, titer in TZM.bl cells [3]: > 50 µg/mL; IC50, titer in TZM.bl cells [4]: 0.022 µg/mL; IC80, titer in TZM.bl cells [4]: 0.111 µg/mL; IC50, titer in TZM.bl cells [5]: 0.042 µg/mL; IC80, titer in TZM.bl cells [5]: 0.186 µg/mL; IC50, titer in TZM.bl cells [6]: > 50 µg/mL; IC80, titer in TZM.bl cells [6]: > 50 µg/mL; IC50, titer in TZM.bl cells [7]: 0.052 µg/mL; IC80, titer in TZM.bl cells [7]: 0.123 µg/mL; IC50, titer in TZM.bl cells [8]: 0.074 µg/mL; IC80, titer in TZM.bl cells [8]: 0.36 µg/mL; IC50, titer in TZM.bl cells [9]: 50 µg/mL; IC80, titer in TZM.bl cells [9]: > 50 µg/mL; IC50, titer in TZM.bl cells [10]: 0.067 µg/mL; IC80, titer in TZM.bl cells [10]: 0.181 µg/mL; IC50, titer in TZM.bl cells [11]: 0.17 µg/mL; IC80, titer in TZM.bl cells [11]: 0.634 µg/mL; IC50, titer in TZM.bl cells [12]: 0.011 µg/mL; IC80, titer in TZM.bl cells [12]: 0.03 µg/mL; IC50, titer in TZM.bl cells [13]: 0.091 µg/mL; IC80, titer in TZM.bl cells [13]: 0.418 µg/mL; IC50, titer in TZM.bl cells [14]: > 50 µg/mL; IC80, titer in TZM.bl cells [14]: > 50 µg/mL; IC50, titer in TZM.bl cells [15]: 0.069 µg/mL; IC80, titer in TZM.bl cells [15]: 0.367 µg/mL; IC50, titer in TZM.bl cells [16]: > 50 µg/mL; IC80, titer in TZM.bl cells [16]: > 50 µg/mL; IC50, titer in TZM.bl cells [17]: > 50 µg/mL; IC80, titer in TZM.bl cells [17]: > 50 µg/mL; IC50, titer in TZM.bl cells [18]: 0.022 µg/mL; IC80, titer in TZM.bl cells [18]: 0.11 µg/mL; IC50, titer in TZM.bl cells [19]: 1.23 µg/mL; IC80, titer in TZM.bl cells [19]: 13.1 µg/mL; IC50, titer in TZM.bl cells [20]: > 50 µg/mL; IC80, titer in TZM.bl cells [20]: > 50 µg/mL; IC50, titer in TZM.bl cells [21]: 0.131 µg/mL; IC80, titer in TZM.bl cells [21]: 0.45 µg/mL

Q: What does the source list for PGT145 (antibody)?
A: IC50, titer in TZM.bl cells [22]: 3.12 µg/mL; IC80, titer in TZM.bl cells [22]: > 50 µg/mL; IC50 [1]: 32.1 µg/mL; IC80 [1]: > 50 µg/mL; IC50 [2]: 0.26 µg/mL; IC80 [2]: 25.5 µg/mL; IC50 [3]: 0.628 µg/mL; IC80 [3]: 5.24 µg/mL; IC50 [4]: > 50 µg/mL; IC80 [4]: > 50 µg/mL; IC50, titer in TZM.bl cells [23]: 0.129 µg/mL; IC80, titer in TZM.bl cells [23]: 0.923 µg/mL; IC50, titer in TZM.bl cells [24]: 0.8 µg/mL; IC80, titer in TZM.bl cells [24]: 20 µg/mL; IC50, titer in TZM.bl cells [25]: 0.219 µg/mL; IC80, titer in TZM.bl cells [25]: 4.22 µg/mL; IC50, titer in TZM.bl cells [26]: 0.403 µg/mL; IC80, titer in TZM.bl cells [26]: 15 µg/mL; IC50 [5]: 7.19 µg/mL; IC80 [5]: > 50 µg/mL; IC50, titer in TZM.bl cells [27]: > 50 µg/mL; IC80, titer in TZM.bl cells [27]: > 50 µg/mL; IC50, titer in TZM.bl cells [28]: 0.114 µg/mL; IC80, titer in TZM.bl cells [28]: 3.1 µg/mL; IC50, titer in TZM.bl cells [29]: > 50 µg/mL; IC80, titer in TZM.bl cells [29]: > 50 µg/mL; IC50 [6]: 0.003 µg/mL; IC80 [6]: 0.051 µg/mL; IC50 [7]: 0.093 µg/mL; IC80 [7]: 0.248 µg/mL; IC50 [8]: 0.192 µg/mL; IC80 [8]: 0.87 µg/mL; IC50 [9]: 0.103 µg/mL; IC80 [9]: 1.13 µg/mL; IC50, titer in TZM.bl cells [30]: 0.005 µg/mL; IC80, titer in TZM.bl cells [30]: 0.044 µg/mL; IC50 [10]: < 0.001 µg/mL; IC80 [10]: 0.009 µg/mL; IC50, titer in TZM.bl cells [31]: > 50 µg/mL; IC80, titer in TZM.bl cells [31]: > 50 µg/mL; IC50 [11]: > 50 µg/mL; IC80 [11]: > 50 µg/mL; IC50 [12]: 0.018 µg/mL; IC80 [12]: 0.419 µg/mL; IC50 [13]: 0.024 µg/mL; IC80 [13]: 0.082 µg/mL; IC50 [14]: 9.27 µg/mL; IC80 [14]: > 50 µg/mL; IC50 [15]: > 50 µg/mL; IC80 [15]: > 50 µg/mL; IC50, titer in TZM.bl cells [32]: 0.024 µg/mL; IC80, titer in TZM.bl cells [32]: 0.146 µg/mL; IC50, titer in TZM.bl cells [33]: 0.043 µg/mL; IC80, titer in TZM.bl cells [33]: 0.164 µg/mL; IC50 [16]: 5.18 µg/mL; IC80 [16]: > 50 µg/mL; IC50 [17]: > 50 µg/mL; IC80 [17]: > 50 µg/mL; IC50 [18]: 0.01 µg/mL; IC80 [18]: 0.025 µg/mL; IC50, titer in TZM.bl cells [34]: 0.241 µg/mL; IC80, titer in TZM.bl cells [34]: 19.7 µg/mL; IC50, titer in TZM.bl cells [35]: 0.012 µg/mL; IC80, titer in TZM.bl cells [35]: 2.03 µg/mL; IC50 [19]: 0.02 µg/mL; IC80 [19]: 0.091 µg/mL; IC50 [20]: 0.01 µg/mL; IC80 [20]: 0.029 µg/mL; IC50, titer in TZM.bl cells [36]: 0.009 µg/mL; IC80, titer in TZM.bl cells [36]: 0.038 µg/mL; IC50, titer in TZM.bl cells [37]: 6.63 µg/mL; IC80, titer in TZM.bl cells [37]: > 50 µg/mL
